From patent US20160200782A1

How the values were obtained:
Experiment in all cases: cell-based or functional assay
MAPK2(h) (human) = MAPK2(h) (human) (UniProt P28482)
Fer(h) (human) = Fer(h) (human) (UniProt P16591)
PKCβII(h) (human) = PKCβII(h) (human) (UniProt P05771)
SAPK4(h) (human) = SAPK4(h) (human) (UniProt O15264)
SAPK2b(h) (human) = SAPK2b(h) (human) (UniProt Q15759)
NLK(h) (human) = NLK(h) (human) (UniProt Q9UBE8)
MAPKAP-K2(h) (human) = MAPKAP-K2(h) (human) (UniProt P49137)
Pyk2(h) (human) = Pyk2(h) (human) (UniProt Q14289)
Tec(h)activated (human) = Tec(h)activated (human) (UniProt P42680)
Rsk1(h) (human) = Rsk1(h) (human) (UniProt Q15418)
NEK2(h) (human) = NEK2(h) (human) (UniProt P51955)
Arg(h) (human) = Arg(h) (human) (UniProt P42684)
DCAMKL2(h) (human) = DCAMKL2(h) (human) (UniProt Q8N568)
EGFR(L861Q)(h) (human) = EGFR(L861Q)(h) (human) (UniProt P00533)
MARK1(h) (human) = MARK1(h) (human) (UniProt Q9P0L2)
FGFR2(h) (human) = FGFR2(h) (human) (UniProt P21802)
CSK(h) (human) = CSK(h) (human) (UniProt P41240)
Fms(h) (human) = Fms(h) (human) (UniProt P07333)
MST1(h) (human) = MST1(h) (human) (UniProt Q13043)
PKG1β(h) (human) = PKG1β(h) (human) (UniProt Q13976)
Chain of PKG1β(h) (human) (Q13976 other isoform, or with tags, fused parts or gaps limits assumed): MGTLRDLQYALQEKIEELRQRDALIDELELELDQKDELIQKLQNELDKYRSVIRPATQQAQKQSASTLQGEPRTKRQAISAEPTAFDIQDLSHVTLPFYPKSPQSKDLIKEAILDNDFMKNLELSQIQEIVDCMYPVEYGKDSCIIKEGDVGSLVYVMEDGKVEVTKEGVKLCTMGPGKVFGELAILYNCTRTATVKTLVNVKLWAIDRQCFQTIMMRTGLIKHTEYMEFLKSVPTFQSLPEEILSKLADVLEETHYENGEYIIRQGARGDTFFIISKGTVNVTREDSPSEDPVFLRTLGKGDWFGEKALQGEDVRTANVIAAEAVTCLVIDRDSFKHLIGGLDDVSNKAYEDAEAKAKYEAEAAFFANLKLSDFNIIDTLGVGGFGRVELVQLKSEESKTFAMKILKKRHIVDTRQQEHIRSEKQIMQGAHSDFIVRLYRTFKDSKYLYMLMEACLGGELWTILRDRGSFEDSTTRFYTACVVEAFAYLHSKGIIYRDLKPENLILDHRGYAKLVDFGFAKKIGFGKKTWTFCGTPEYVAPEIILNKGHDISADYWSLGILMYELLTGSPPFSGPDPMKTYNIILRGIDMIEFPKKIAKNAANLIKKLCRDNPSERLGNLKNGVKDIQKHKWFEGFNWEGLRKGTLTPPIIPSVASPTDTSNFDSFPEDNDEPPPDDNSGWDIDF

PAR-1Bα(h) (human) = PAR-1Bα(h) (human) (UniProt Q7KZI7)
Ab1(Q252H)(h) (human) = Ab1(Q252H)(h) (human) (UniProt P00519)
Met(Y1248D)(h) (human) = Met(Y1248D)(h) (human) (UniProt P08581)
PKBβ(h) (human) = PKBβ(h) (human) (UniProt P31751)
PKBα(h) (human) = PKBα(h) (human) (UniProt P31749)
FGFR3(h) (human) = FGFR3(h) (human) (UniProt P22607)
PRK2(h) (human) = PRK2(h) (human) (UniProt Q16513)
PTK5(h) (human) = PTK5(h) (human) (UniProt P42685)
Rsk3(h) (human) = Rsk3(h) (human) (UniProt Q15349)
Chain of Rsk3(h) (human) (Q15349 whole entry): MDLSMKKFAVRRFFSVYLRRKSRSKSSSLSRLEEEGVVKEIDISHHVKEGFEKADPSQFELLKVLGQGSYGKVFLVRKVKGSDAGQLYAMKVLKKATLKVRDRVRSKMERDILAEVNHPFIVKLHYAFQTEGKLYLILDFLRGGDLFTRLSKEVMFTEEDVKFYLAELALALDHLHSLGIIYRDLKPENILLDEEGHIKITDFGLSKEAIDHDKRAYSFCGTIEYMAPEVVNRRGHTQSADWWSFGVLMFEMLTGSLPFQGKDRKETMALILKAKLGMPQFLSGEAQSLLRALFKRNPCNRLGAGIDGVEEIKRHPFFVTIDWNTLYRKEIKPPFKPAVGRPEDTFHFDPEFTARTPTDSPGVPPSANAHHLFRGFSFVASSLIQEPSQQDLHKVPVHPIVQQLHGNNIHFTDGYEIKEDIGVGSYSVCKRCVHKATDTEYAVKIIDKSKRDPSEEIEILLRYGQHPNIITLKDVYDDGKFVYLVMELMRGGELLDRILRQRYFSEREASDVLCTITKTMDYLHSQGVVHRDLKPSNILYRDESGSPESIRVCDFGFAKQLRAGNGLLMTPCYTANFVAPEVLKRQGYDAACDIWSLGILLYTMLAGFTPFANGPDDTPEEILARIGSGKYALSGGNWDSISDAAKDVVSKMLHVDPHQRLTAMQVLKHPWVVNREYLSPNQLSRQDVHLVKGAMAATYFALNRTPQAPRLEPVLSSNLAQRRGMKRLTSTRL

PDGFRβ(h) (human) = PDGFRβ(h) (human) (UniProt P09619)
cKit(D816H)(h) (human) = cKit(D816H)(h) (human) (UniProt P10721)
Snk(h) (human) = Snk(h) (human) (UniProt Q9NYY3)
CaMKIIγ(h) (human) = CaMKIIγ(h) (human) (UniProt Q13555)
DYRK2(h) (human) = DYRK2(h) (human) (UniProt Q92630)
GRK6(h) (human) = GRK6(h) (human) (UniProt P43250)
LIMK1(h) (human) = LIMK1(h) (human) (UniProt P53667)
cKit(D816V)(h) (human) = cKit(D816V)(h) (human) (UniProt P10721)
Flt1(h) (human) = Flt1(h) (human) (UniProt P17948)
MEK1(h) (human) = MEK1(h) (human) (UniProt Q02750)
MKK6(h) (human) = MKK6(h) (human) (UniProt P52564)
Tie2(Y897S)(h) (human) = Tie2(Y897S)(h) (human) (UniProt Q02763)
Chain of Tie2(Y897S)(h) (human) (Q02763 771-1124 Y897S limits assumed): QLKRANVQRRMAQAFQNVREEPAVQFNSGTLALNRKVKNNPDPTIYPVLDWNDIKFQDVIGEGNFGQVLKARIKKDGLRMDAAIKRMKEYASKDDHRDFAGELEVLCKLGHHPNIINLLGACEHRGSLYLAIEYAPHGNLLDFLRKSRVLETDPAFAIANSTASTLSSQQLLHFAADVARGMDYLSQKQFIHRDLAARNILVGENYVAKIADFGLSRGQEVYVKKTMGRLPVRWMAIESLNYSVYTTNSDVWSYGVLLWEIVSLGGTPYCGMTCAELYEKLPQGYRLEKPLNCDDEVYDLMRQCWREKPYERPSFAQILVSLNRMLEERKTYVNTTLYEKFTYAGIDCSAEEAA

Mnk2(h) (human) = Mnk2(h) (human) (UniProt Q9HBH9)
Chain of Mnk2(h) (human) (Q9HBH9 whole entry): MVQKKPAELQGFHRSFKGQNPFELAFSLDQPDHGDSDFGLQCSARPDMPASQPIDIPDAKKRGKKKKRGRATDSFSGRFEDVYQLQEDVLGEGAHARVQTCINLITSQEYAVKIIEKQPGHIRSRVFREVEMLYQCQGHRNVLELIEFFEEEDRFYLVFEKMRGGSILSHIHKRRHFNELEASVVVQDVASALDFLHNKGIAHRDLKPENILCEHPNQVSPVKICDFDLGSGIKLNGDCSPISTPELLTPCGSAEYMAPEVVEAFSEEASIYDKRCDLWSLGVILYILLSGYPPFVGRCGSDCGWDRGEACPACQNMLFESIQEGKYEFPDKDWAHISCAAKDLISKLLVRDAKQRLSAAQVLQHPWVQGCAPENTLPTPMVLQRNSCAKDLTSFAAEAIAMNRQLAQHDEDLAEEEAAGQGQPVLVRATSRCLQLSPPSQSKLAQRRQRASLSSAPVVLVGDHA

SRPK1(h) (human) = SRPK1(h) (human) (UniProt Q96SB4)
Chain of SRPK1(h) (human) (Q96SB4 whole entry): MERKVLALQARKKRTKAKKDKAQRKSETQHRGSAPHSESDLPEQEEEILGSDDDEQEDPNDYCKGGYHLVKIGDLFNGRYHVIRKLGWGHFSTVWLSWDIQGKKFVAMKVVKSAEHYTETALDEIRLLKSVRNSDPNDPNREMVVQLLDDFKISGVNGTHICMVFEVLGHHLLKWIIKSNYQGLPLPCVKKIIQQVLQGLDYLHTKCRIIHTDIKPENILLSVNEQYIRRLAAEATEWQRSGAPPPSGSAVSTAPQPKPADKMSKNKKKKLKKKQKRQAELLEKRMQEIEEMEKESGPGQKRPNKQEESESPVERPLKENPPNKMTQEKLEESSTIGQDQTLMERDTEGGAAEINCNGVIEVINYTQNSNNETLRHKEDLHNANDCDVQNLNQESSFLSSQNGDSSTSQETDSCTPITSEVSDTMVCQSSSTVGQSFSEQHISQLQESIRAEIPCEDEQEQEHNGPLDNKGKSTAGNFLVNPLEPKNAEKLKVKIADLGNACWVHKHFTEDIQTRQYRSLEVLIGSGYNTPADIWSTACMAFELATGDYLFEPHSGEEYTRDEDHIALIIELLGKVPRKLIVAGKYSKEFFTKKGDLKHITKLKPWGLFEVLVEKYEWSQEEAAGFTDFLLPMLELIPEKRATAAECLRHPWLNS

Ab1(T315I)(h) (human) = Ab1(T315I)(h) (human) (UniProt P00519)
Chain of Ab1(T315I)(h) (human) (P00519 27-1130 T315I limits assumed): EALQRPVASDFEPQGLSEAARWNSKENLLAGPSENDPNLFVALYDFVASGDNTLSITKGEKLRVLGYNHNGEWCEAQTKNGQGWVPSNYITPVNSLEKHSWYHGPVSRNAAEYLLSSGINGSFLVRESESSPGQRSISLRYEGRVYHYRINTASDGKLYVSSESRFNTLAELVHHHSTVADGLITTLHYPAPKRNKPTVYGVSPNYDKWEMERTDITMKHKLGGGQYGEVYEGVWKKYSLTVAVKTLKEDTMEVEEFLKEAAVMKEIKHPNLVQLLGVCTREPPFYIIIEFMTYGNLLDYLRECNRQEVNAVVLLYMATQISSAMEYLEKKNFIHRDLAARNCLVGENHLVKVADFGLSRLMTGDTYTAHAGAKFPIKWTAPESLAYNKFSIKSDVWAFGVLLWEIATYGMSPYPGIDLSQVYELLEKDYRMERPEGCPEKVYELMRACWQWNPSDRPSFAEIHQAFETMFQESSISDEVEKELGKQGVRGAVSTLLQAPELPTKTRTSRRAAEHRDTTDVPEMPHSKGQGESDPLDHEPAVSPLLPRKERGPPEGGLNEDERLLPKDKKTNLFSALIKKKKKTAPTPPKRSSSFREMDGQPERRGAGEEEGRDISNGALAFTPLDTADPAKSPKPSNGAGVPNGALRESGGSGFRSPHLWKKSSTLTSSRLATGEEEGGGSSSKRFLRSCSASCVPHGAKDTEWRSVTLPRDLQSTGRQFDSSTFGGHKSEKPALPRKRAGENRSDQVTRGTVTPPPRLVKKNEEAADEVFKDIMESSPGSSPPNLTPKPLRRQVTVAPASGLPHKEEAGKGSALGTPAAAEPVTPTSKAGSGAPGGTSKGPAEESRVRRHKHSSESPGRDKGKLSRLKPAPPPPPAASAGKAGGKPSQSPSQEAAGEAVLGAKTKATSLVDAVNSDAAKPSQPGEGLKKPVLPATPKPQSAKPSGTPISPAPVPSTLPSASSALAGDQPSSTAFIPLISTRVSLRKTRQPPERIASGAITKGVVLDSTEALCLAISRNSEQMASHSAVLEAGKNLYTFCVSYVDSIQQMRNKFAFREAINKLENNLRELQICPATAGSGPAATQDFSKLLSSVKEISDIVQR

PKG1α(h) (human) = PKG1α(h) (human) (UniProt Q13976)
Ret(V804L)(h) (human) = Ret(V804L)(h) (human) (UniProt P07949)
ROCK-II(h) (human) = ROCK-II(h) (human) (UniProt O75116)
JNK3(h) (human) = JNK3(h) (human) (UniProt P53779)
PKD2(h) (human) = PKD2(h) (human) (UniProt Q9BZL6)
PDGFRα(D842V)(h) (human) = PDGFRα(D842V)(h) (human) (UniProt P16234)
MAPKAP-K3(h) (human) = MAPKAP-K3(h) (human) (UniProt Q16644)
NEK11(h) (human) = NEK11(h) (human) (UniProt Q8NG66)
IRR(h) (human) = IRR(h) (human) (UniProt P14616)
Pim-2(h) (human) = Pim-2(h) (human) (UniProt Q9P1W9)
Aurora-A(h) (human) = Aurora-A(h) (human) (UniProt O14965)
EphB2(h) (human) = EphB2(h) (human) (UniProt P29323)

Chain of SAPK4(h) (human) (O15264 whole entry): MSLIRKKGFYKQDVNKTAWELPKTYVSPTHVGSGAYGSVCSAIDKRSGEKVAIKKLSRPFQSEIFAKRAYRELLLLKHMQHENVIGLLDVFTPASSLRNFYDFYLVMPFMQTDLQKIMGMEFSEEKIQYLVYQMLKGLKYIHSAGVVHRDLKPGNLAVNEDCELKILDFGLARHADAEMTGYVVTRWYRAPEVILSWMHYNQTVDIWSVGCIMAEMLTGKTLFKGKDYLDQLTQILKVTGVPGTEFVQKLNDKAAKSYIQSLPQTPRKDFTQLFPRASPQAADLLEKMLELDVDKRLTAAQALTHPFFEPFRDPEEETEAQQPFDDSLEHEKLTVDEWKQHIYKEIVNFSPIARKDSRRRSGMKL
Chain of Fer(h) (human) (P16591 541-822 limits assumed): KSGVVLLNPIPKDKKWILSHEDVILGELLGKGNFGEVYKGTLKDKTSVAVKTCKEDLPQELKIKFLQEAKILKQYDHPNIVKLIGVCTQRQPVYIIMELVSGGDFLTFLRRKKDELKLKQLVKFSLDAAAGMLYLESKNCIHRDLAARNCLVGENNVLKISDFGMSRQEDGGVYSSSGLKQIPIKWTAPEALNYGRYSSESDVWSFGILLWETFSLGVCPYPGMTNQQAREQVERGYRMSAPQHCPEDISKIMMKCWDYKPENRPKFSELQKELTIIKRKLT
Chain of MAPKAP-K2(h) (human) (P49137 46-400 limits assumed): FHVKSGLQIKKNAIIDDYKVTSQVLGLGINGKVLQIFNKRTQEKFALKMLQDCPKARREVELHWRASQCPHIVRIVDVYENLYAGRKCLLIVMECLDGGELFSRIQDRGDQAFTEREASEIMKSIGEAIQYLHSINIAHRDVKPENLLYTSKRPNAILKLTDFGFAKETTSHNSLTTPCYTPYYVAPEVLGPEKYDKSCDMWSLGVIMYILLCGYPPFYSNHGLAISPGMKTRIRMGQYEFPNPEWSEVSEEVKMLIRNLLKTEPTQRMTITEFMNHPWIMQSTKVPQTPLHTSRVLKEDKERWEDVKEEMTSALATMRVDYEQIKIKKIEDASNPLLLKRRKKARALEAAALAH

MMI-0100 (peptide)
% activity (MAPK2(h) (human)): 98% | % activity (Fer(h) (human)): 117% | % activity (PKCβII(h) (human)): 102% | % activity (SAPK4(h) (human)): 98% | % activity (SAPK2b(h) (human)): 99% | % activity (NLK(h) (human)): 100% | % activity (MAPKAP-K2(h) (human)): 19% | % activity (Pyk2(h) (human)): 113% | % activity (Tec(h)activated (human)): 100% | % activity (Rsk1(h) (human)): 86% | % activity (NEK2(h) (human)): 102% | % activity (Arg(h) (human)): 89% | % activity (DCAMKL2(h) (human)): 146% | % activity (EGFR(L861Q)(h) (human)): 53% | % activity (MARK1(h) (human)): 109% | % activity (FGFR2(h) (human)): 49% | % activity (CSK(h) (human)): 70% | % activity (Fms(h) (human)): 89% | % activity (MST1(h) (human)): 85% | % activity (PKG1β(h) (human)): 71% | % activity (PAR-1Bα(h) (human)): 62% | % activity (Ab1(Q252H)(h) (human)): 105% | % activity (Met(Y1248D)(h) (human)): 87% | % activity (PKBβ(h) (human)): 284% | % activity (PKBα(h) (human)): 140% | % activity (FGFR3(h) (human)): 73% | % activity (PRK2(h) (human)): 72% | % activity (PTK5(h) (human)): 135% | % activity (Rsk3(h) (human)): 76% | % activity (PDGFRβ(h) (human)): 116% | % activity (cKit(D816H)(h) (human)): 79% | % activity (Snk(h) (human)): 94% | % activity (CaMKIIγ(h) (human)): 106% | % activity (DYRK2(h) (human)): 99% | % activity (GRK6(h) (human)): 131% | % activity (LIMK1(h) (human)): 103% | % activity (cKit(D816V)(h) (human)): 117% | % activity (Flt1(h) (human)): 109% | % activity (MEK1(h) (human)): 86% | % activity (MKK6(h) (human)): 74% | % activity (Tie2(Y897S)(h) (human)): 99% | % activity (Mnk2(h) (human)): 94% | % activity (SRPK1(h) (human)): 69% | % activity (Ab1(T315I)(h) (human)): 98% | % activity (PKG1α(h) (human)): 82% | % activity (Ret(V804L)(h) (human)): 113% | % activity (ROCK-II(h) (human)): 102% | % activity (JNK3(h) (human)): 104% | % activity (PKD2(h) (human)): 84% | % activity (PDGFRα(D842V)(h) (human)): 103% | % activity (MAPKAP-K3(h) (human)): 27% | % activity (NEK11(h) (human)): 102% | % activity (IRR(h) (human)): 85% | % activity (Pim-2(h) (human)): 117% | % activity (Aurora-A(h) (human)): 120% | % activity (EphB2(h) (human)): 68%

MMI-0200 (peptide)
% activity (MAPK2(h) (human)): 105% | % activity (Fer(h) (human)): 101% | % activity (PKCβII(h) (human)): 100% | % activity (SAPK4(h) (human)): 106% | % activity (SAPK2b(h) (human)): 95% | % activity (NLK(h) (human)): 106% | % activity (MAPKAP-K2(h) (human)): 35% | % activity (Pyk2(h) (human)): 127% | % activity (Tec(h)activated (human)): 77% | % activity (Rsk1(h) (human)): 102% | % activity (NEK2(h) (human)): 97% | % activity (Arg(h) (human)): 82% | % activity (DCAMKL2(h) (human)): 131% | % activity (EGFR(L861Q)(h) (human)): 74% | % activity (MARK1(h) (human)): 102% | % activity (FGFR2(h) (human)): 73% | % activity (CSK(h) (human)): 33% | % activity (Fms(h) (human)): 92% | % activity (MST1(h) (human)): 72% | % activity (PKG1β(h) (human)): 57% | % activity (PAR-1Bα(h) (human)): 110% | % activity (Ab1(Q252H)(h) (human)): 107% | % activity (Met(Y1248D)(h) (human)): 118% | % activity (PKBβ(h) (human)): 250% | % activity (PKBα(h) (human)): 110% | % activity (FGFR3(h) (human)): 208% | % activity (PRK2(h) (human)): 74% | % activity (PTK5(h) (human)): 108% | % activity (Rsk3(h) (human)): 109% | % activity (PDGFRβ(h) (human)): 137% | % activity (cKit(D816H)(h) (human)): 106% | % activity (Snk(h) (human)): 109% | % activity (CaMKIIγ(h) (human)): 94% | % activity (DYRK2(h) (human)): 142% | % activity (GRK6(h) (human)): 132% | % activity (LIMK1(h) (human)): 109% | % activity (cKit(D816V)(h) (human)): 118% | % activity (Flt1(h) (human)): 96% | % activity (MEK1(h) (human)): 116% | % activity (MKK6(h) (human)): 98% | % activity (Tie2(Y897S)(h) (human)): 85% | % activity (Mnk2(h) (human)): 106% | % activity (SRPK1(h) (human)): 93% | % activity (Ab1(T315I)(h) (human)): 108% | % activity (PKG1α(h) (human)): 70% | % activity (Ret(V804L)(h) (human)): 100% | % activity (ROCK-II(h) (human)): 85% | % activity (JNK3(h) (human)): 90% | % activity (PKD2(h) (human)): 78% | % activity (PDGFRα(D842V)(h) (human)): 107% | % activity (MAPKAP-K3(h) (human)): 39% | % activity (NEK11(h) (human)): 95% | % activity (IRR(h) (human)): 69% | % activity (Pim-2(h) (human)): 74% | % activity (Aurora-A(h) (human)): 107% | % activity (EphB2(h) (human)): 128%

MMI-0500 (peptide)
% activity (MAPK2(h) (human)): 60% | % activity (Fer(h) (human)): 196% | % activity (PKCβII(h) (human)): 3% | % activity (SAPK4(h) (human)): 48% | % activity (SAPK2b(h) (human)): 42% | % activity (NLK(h) (human)): 19% | % activity (MAPKAP-K2(h) (human)): 9% | % activity (Pyk2(h) (human)): 46% | % activity (Tec(h)activated (human)): 33% | % activity (Rsk1(h) (human)): 34% | % activity (NEK2(h) (human)): 0% | % activity (Arg(h) (human)): 22% | % activity (DCAMKL2(h) (human)): 56% | % activity (EGFR(L861Q)(h) (human)): 15% | % activity (MARK1(h) (human)): 110% | % activity (FGFR2(h) (human)): 12% | % activity (CSK(h) (human)): 2% | % activity (Fms(h) (human)): 14% | % activity (MST1(h) (human)): 3% | % activity (PKG1β(h) (human)): 24% | % activity (PAR-1Bα(h) (human)): 97% | % activity (Ab1(Q252H)(h) (human)): 40% | % activity (Met(Y1248D)(h) (human)): 218% | % activity (PKBβ(h) (human)): 21% | % activity (PKBα(h) (human)): 30% | % activity (FGFR3(h) (human)): 10% | % activity (PRK2(h) (human)): 7% | % activity (PTK5(h) (human)): 96% | % activity (Rsk3(h) (human)): 23% | % activity (PDGFRβ(h) (human)): 40% | % activity (cKit(D816H)(h) (human)): 194% | % activity (Snk(h) (human)): 122% | % activity (CaMKIIγ(h) (human)): 3% | % activity (DYRK2(h) (human)): 127% | % activity (GRK6(h) (human)): 174% | % activity (LIMK1(h) (human)): 87% | % activity (cKit(D816V)(h) (human)): 30% | % activity (Flt1(h) (human)): 27% | % activity (MEK1(h) (human)): 21% | % activity (MKK6(h) (human)): 18% | % activity (Tie2(Y897S)(h) (human)): 80% | % activity (Mnk2(h) (human)): 6% | % activity (SRPK1(h) (human)): 80% | % activity (Ab1(T315I)(h) (human)): 16% | % activity (PKG1α(h) (human)): 25% | % activity (Ret(V804L)(h) (human)): 20% | % activity (ROCK-II(h) (human)): 2% | % activity (JNK3(h) (human)): 171% | % activity (PKD2(h) (human)): 10% | % activity (PDGFRα(D842V)(h) (human)): 170% | % activity (MAPKAP-K3(h) (human)): 9% | % activity (NEK11(h) (human)): 2% | % activity (IRR(h) (human)): 10% | % activity (Pim-2(h) (human)): 46% | % activity (Aurora-A(h) (human)): 110% | % activity (EphB2(h) (human)): 70%
